Substrate in the data set: Nc1ncnc2c1ncn2[C@@H]1O[C@H](COP(=O)(O)NCCc2c[nH]c3ccccc23)[C@@H](O)[C@H]1O
Nature of the data set: HINT1 enzyme activity assay (TrpA hydrolysis, fluorescence). The class given is biochemical, human. The conditions noted are these: other: substrate of hHint1. The source says:
While the biologically relevant substrates of HINT1 have not been clearly elucidated, the protein has been implicated in opioid receptor signaling, − regulation of the melanoma-associated transcription factor MITF, , and DNA damage repair. These functions position HINT1 as a potential pharmacological target for treating conditions such as opioid resistance or melanoma. The only reported HINT1-targeting pharmacophores are nucleoside-based nonhydrolyzable substrate analogs, such as the carbamate TrpGC (Figure a). , We evaluated the inhibitory potential of KV-24 and KV-30 in enzyme activity assays using recombinant HINT1. […]
Mouse brain proteomics – LC-MS/MS. […] 10 µg of peptide mix was injected and analyzed using a 58 min gradient starting at 1% B up to 45% B (1 h method). […]
Mouse proteomics data analysis. The data files were analyzed with DIA-NN 1.8.1. […] The resulting protein group tables were further analyzed by Perseus 1.6.2.2. […]
CME of transferrin and confocal microscopy analyses.For transferrin uptake experiments HeLa cells were seeded on Matrigel-coated coverslips, and incubated with 0.1 % DMSO, or with 100 µM dynasore, 20 µM KV50, 2 µM KV65, or 2 µM KV79 in media containing 10% FCS at 37°C for 20 h. […] All inhibitor treatments were performed in duplicate, to enable quantification of surface levels of transferrin receptors, and to assess the capability of transferrin receptor endocytosis. […]

Data on one protein can be found in publication PMC12186257, “Serendipitous and Systematic Chemoproteomic Discovery of MBLAC2, HINT1, and NME1‑4 Inhibitors from Histone Deacetylase-Targeting Pharmacophores” (ACS Chemical Biology, 2025).

B1: recombinant HINT1 (hHint1) (Homo sapiens) (protein)
chain: MADEIAKAQVARPGGDTIFGKIIRKEIPAKIIFEDDRCLAFHDISPQAPTHFLVIPKKHISQISVAEDDDESLLGHLMIVGKKCAADLGLNKGYRMVVNEGSDGGQSVYHVHLHVLGGRQMHWPPG
Take B1: the Michaelis constant (Km) came out at 0.139 µM.
